For the assay, the target named is T1, GST-DDRM1 (Arabidopsis thaliana, UniProt Q9ZW89 1-453).
T1 sequence (looked up): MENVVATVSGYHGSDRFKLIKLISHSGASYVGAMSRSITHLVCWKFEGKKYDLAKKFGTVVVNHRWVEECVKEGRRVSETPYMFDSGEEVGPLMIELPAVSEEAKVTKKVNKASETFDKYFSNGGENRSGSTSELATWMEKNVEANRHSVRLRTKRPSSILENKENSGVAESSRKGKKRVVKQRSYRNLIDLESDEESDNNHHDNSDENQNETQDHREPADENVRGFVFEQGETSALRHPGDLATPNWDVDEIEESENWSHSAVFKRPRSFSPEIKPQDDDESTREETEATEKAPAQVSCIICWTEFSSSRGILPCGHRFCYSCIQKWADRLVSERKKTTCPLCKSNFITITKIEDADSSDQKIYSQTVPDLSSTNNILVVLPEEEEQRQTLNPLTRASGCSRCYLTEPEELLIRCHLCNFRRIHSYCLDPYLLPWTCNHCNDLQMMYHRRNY
The experiment in a line: pull-down.

B1: MBP-SOG1 (natural protein, Arabidopsis thaliana, UniProt Q6NQK2 1-449, looked up)
chain: MAGRSWLIDSNRIATKIMSASASSDPRQVVWKSNPSRHCPKCQHVIDNSDVVDDWPGLPRGVKFDPSDPEIIWHLLAKSGLSGLSSHPFIDEFIPTVNQDDGICYTHPKNLPGVKSDGTVSHFFHKAIKAYSTGTRKRRKIHDDDFGDVRWHKTGRTKPVVLDGVQRGCKKIMVLYGGKAVKTNWVMHQYHLGIEEDEKEGDYVVSKIFYQQPQQLVVKRGDKAEQEVSEDIFAAVTPTADPVTPKLATPEPRNAVRICSDSHIASDYVTPSDYVSAHEVSLAETSEVMCMEDEVQSIQPNHERPSSGPELEHGLENGAKEMLDDKEEQEKDRDNENQGEEDPTWFDSGSQFILNSQQLVEALSLCDDLLGSQDREENTNSGSLKDKQPCIADYAHLGPEDFKRDLEECQKIVLDPSNIELDTPPEFRLSQLEFGSQDSFLAWGTGKTD
As to B1, the binding result is reported as “binds”.

The values above are taken from article PMC9169791 (Proceedings of the National Academy of Sciences of the …, 2022).
